Experimental data published in publication PMC4604687, “A novel mechano-enzymatic cleavage mechanism underlies transthyretin amyloidogenesis” (EMBO Molecular Medicine, 2015).
Blank lines part the entries; values can stand above or below the binder they belong to.

Columns and labels:
Details in all cases: both partners purified
[1] = biological target: wild-type transthyretin (wild-type TTR) (UniProt P02766 21-147); test: native MS; equimolar 50 uM light wild-type and heavy S52P TTR in PBS 3 days at 4°C, then overnight with trypsin at 37°C; each tetramer species isolated and activated (tandem MS, Q-TOFII, 40 V)
[2] = biological target: T1, S52P transthyretin (S52P TTR), full-length protomer (residues 1–127) (UniProt P02766 21-147, S52P); test: as above
[3] = biological target: T1, S52P transthyretin (S52P TTR), …; test: native MS; TTR (S52P with or without limited trypsin proteolysis; wild type) in 200 mM ammonium acetate pH 7.4, nano-electrospray; 13+ charge state of the tetramer selected, acceleration voltage ramped 20 to 70 V (collision-induced dissociation)

- binding result [1]: binds
- binding result [2]: binds
B1: residue 49–127 fragment of S52P TTR (domain or fragment)
chain: not shown
notes: In the hybrid tetramer experiment the fragment comes from the 13C,15N-labelled S52P TTR; source: limited trypsin proteolysis of recombinant S52P TTR (cleavage at Lys48)

- binding result [3]: binds
B2: tryptic peptide CPLMVK (peptide)
peptide: CPLMVK
notes: tryptic peptide seen as adduct on the S52P TTR tetramer; source: trypsin digestion of recombinant S52P TTR
